This is an account of results in PMC6509496, “Crystal structure of the TreS:Pep2 complex, initiating α-glucan synthesis in the GlgE pathway of mycobacteria” (The Journal of Biological Chemistry, 2019).

The test system of the data set is T1, Nc1ncnc2c1ncn2[C@@H]1O[C@H](COP(=O)(O)OP(=O)(O)OP(=O)(O)O)[C@@H](O)[C@H]1O.
T1 construct: full length (441 residues), N-terminal His6 tag (pET28a), E. coli BL21(DE3); monomer
As to the kind of experiment: coupled pyruvate kinase / lactate dehydrogenase assay, NADH depletion. The format is biochemical, Mycolicibacterium smegmatis. Conditions: 20 mM maltose, 10 mM MgCl2, 50 mM sodium phosphate pH 7.5, 300 mM NaCl, 10% glycerol, no TreS.

From the text: coupled pyruvate kinase / lactate dehydrogenase assay, NADH depletion on Msm Pep2 (M. smegmatis maltokinase, MsPep2)

For “Msm Pep2 (M. smegmatis maltokinase, MsPep2) (Mycolicibacterium smegmatis MC2 155)”, the Michaelis constant (Km) came out at 76 ± 7 µM.

For orientation: Km means the substrate concentration at which the rate is half of its maximum.
